Data as given in the supplement of paper PMC9170038.

Tests used:
[1] = test system: K4 kissing-loop RNA reporter; assay: apparent KD of K4 kissing-loop reporter; higher = weaker reporter binding; settings: Eterna round: R107;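 note: bound reporter read as fluorescence of individual clusters on recovered sequencing chips by microscopy, with normalized cluster intensities fitted with a binding model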
Experimental: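 RNA-MaP round R107: designed RNA switches with theophylline, tryptophan, arginine or FMN aptamers are transcribed on-chip within common flanks. They are titrated with a labelled K4 kissing-loop RNA reporter in RNA-MaP buffer (100 mM Tris pH 7.5, 80 mM KCl, 4 mM MgCl2), without ligand or with the indicated ligand. Median apparent KD per design.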

MS2 coat protein = assay: apparent KD of MS2 coat protein; designed switch direction (-1 OFF switch, 1 ON switch): -1; higher = weaker reporter binding
Outline: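 Stalled E. coli RNA polymerase transcribed designed RNA switches on Illumina chips, which were then titrated with SNAP-549-labelled MS2 coat protein, doubling from 0.7 or 1.5 nM to 3 µM. Steps lasted from 0.8–1.5 h at the lowest concentration to 10–20 min at the highest. The apparent KD is each design's median over clusters of curve-fitted normalised fluorescence.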

[2] = input ligand: theophylline 20 uM
[3] = input ligand: tryptophan 2.4 mM
[4] = Eterna round: R95, input ligand: microRNA oligo, concentration not stated
[5] = input ligand: microRNA oligo, concentration not stated

Sequence | apparent KD of K4 kissing-loop reporter ([1]; input ligand: FMN 200 uM) [nM] | apparent KD of K4 kissing-loop reporter ([1]; input ligand: arginine 13.2 mM) [nM] | apparent KD of K4 kissing-loop reporter ([1]; input ligand: none) [nM] | apparent KD of K4 kissing-loop reporter [1, 2] [nM] | apparent KD of K4 kissing-loop reporter [1, 3] [nM] | apparent KD of MS2 coat protein (MS2 coat protein; [4]) [nM] | apparent KD of MS2 coat protein (MS2 coat protein; input ligand: FMN 200 uM) [nM] | apparent KD of MS2 coat protein (MS2 coat protein; [5]) [nM] | apparent KD of MS2 coat protein (MS2 coat protein; input ligand: none) [nM]
AAACAUUGGUCUGAUACCAGUUAGACCGAUAAGGUCAAAACUGGAGUGAUGUUCCCAAAUAACCCUUGGCAGCAGACCGAUGAAA [MAT - Same State Theophlline B - Mod of Eli - D10] | 147 | 66 | 212 | 185 | 231 |  |  |  | 
AAACGCUGGUGAAUAACACUAGCGAAUUCGCGAGGACCGGUACGGCCGCCACUCGCUAACUGCGAGUGAUGUUCGAUAAUAAAAU [Mat - Mod of OpenEnded 3 - D2] | 141 | 107 | 154 | 189 | 142 |  |  |  | 
AAACGUUGGUCGGAUACCAGUUAGACCGAUAAGGUCAAAACUGGAGUGAUGUUCCCAAAUAACCCUUGGCAGCCGACCGACGAAA [MAT - Same State Theophlline B - Mod of Eli - D12] | 318 | 126 | 214 | 219 | 213 |  |  |  | 
AAACGUUGGUCUGAUACCAGCUUGAUCGGUAAACGAUCUACUGGAGUGAUGUUCCUAAAUAGCCCUUGGCAGCAGACCGACGAAA [MAT - Same State Theophlline B - Mod of Eli - D7] | 195 | 163 | 173 | 118 | 170 |  |  |  | 
AAACUUGCAGUGAUGUUGCAAGUAGGUGAUACCAGCAUCGAAAGAUGCCCUUGGCAGCACCAAAACAUCACUUAGGUGCUGUCUA [(H1)-(H2)-(T1)-(T2)-(H)'-(T)'_Design6] | 757 | 494 | 622 | 603 | 614 |  |  |  | 
AAAUAGAUCAGUCAACCAGUGAUGUUGGAAGGAGCGUGCGAAAGCACAGGUAGGUCGCCAGAAUAAAAGUGGCUGAUCAAAAUAA | 357 | 384 | 374 | 508 | 214 |  |  |  | 
AAAUAGAUCAGUCACCCAGUGAUGUUGGAAGGAGCGUGCGAAAGCACAGGUAGGUCGCCAAAAUAAAAUUGGCUGAUCAAAAUAA | 304 | 310 | 361 | 485 | 195 |  |  |  | 
AAAUCGUUCAGAAGGAGCGUGGUAUAAUCAUUAAUAUUUAUUACGAGUGAUGUUCGUAAUUCACAGGUAGGUCGCUGAUCGAUAA [JR_SSArginiB_Sub006] | 88.6 | 94.6 | 86 | 99.8 | 82.7 |  |  |  | 
AAAUGCAGCAAACGAGUGAUGUUCGACGAUACCAGCCUCGAUAGAGGCCCUUGGCAGCGUACAUCAAAGCCAAGGGCUGCUAAAA [#SwitchBubble 3] | 483 | 463 | 552 | 499 | 454 |  |  |  | 
AAAUUCUUUUUUUUAUUUAACUUUUCAGAAGGAGCGUGGUAGUACACAGGUAGGUCGCUGAAUUUUGGACUAGUGAUGUUAGUUA [JR_SSArginiA_Sub007] | 156 | 154 | 158 | 228 | 153 |  |  |  | 
AAAUUCUUUUUUUUAUUUAACUUUUCAGAAGGAGCGUGGUAGUUCACAGGUAGGUCGCUGAAUUUUGGACUAGUGAUGUUAGUUA [JR_SSArginiA_Sub006] | 148 | 214 | 234 | 216 | 158 |  |  |  | 
AAAUUUAAUAUAUUUAAUUAAUUAUGUGAUACCAGACAUUUAUAAGUCCCUUGGCAGCACUUUGCAGUGAUGUUGCAUAUAAUAA [JR_SSTheophyA_Sub013] | 89 | 185 | 121 | 157 | 99.2 |  |  |  | 
AAAUUUUCAAGUGAUACCAGACAUCUCUAUUACAUUAAUAUAGCUAAGUGAUGUUUAGCAGUCCCUUGGCAGCACAAUUUAAUUA [JR_SSTheophyB_Sub013] | 255 | 202 | 297 | 337 | 215 |  |  |  | 
AACAGCAAUGCGGCCGCCACUUCGAGGUCAGUGAUGUUGACGGAAUUAAAUAAAGAUCCCAAGAGGAGGACCGGGCAGUGCUGUU [whbob_SS_Tryp_B_t25] | 468 | 465 | 499 | 410 | 289 |  |  |  | 
AACAGCAAUGCGGCCGCCACUUCGAGGUCAGUGAUGUUGACGGGAUUAAAUAAAGAUCCCAAGAGGAGGACCGGGCAGUGCUGUU [whbob_SS_Tryp_B_t26] | 225 | 195 | 215 | 176 | 192 |  |  |  | 
UUUUUGUCAGGAUAUGAUUAGAUCUACUUUUGUAGAUCUAAUCAGAAGGGACAUGAGGAUCACCCAUGUAGUUU [Ex4 - 3 - 11] (puzzle: Exclusion 4) |  |  |  |  |  | 35.7 |  |  | 
UUUUUGUGAGGAUAUCAGUAGUAAAUAAAUAAAAUAACUACUGAGAAGGCACAUGAGGAUCACCCAUGUUCUUU [Mat - Exclusion 4 - Mod of Salish - D67] (puzzle: Exclusion 4) |  |  |  |  |  | 17.1 |  |  | 
UUUUUUGUUGUGAGGAUAUCGUAGUUAUUUUGUUACGAGAAGGCACAUGAGGAUCACCCAUGUUUUUUGAUGUU [JR_BMOE4_Sub064] (puzzle: Brourd's mod of Exclusion 4) |  |  |  |  |  | 25.4 |  |  | 
UUUUUUUAUGAAGGAUAUACUUAACAUGAGGAUCACCCAUGUGGUGUUGUGAGUGAGUGAGUUUAGUAGAAGGUCAAUUAUUUU [JMF's solution 23] (Eterna round: R96, puzzle: Exclusion NG 2) |  |  |  |  |  |  | 412 | 379 | 334
UUUUUUUGAGUAAGGAUAUGAUGCAGGAAACUGCGUCAGAAGGUACAUGAGGAUCACCCAUGUUAAUUUUGUUU [Explosion 14 - Jieux - Brourd's mod of Exclusion 4] (Eterna round: R97, puzzle: Brourd's mod of Exclusion 4) |  |  |  |  |  |  | 18.4 |  | 20.3
UUUUUUUUGCGAGGAUAUGCAUUUAGUUAGUUAGCAGAAGGCGCGUUUCUAUACUCCUCUUCUUACAUGAGGAUCACCCAUGUU [JR_ExcNG1_Sub033] (Eterna round: R96, puzzle: Exclusion NG 1) |  |  |  |  |  |  | 69.9 | 34.5 | 35.1
